Laboratory results as given in patent US8524947B2, “Acylsulfonamides and processes for producing the same” (University of South Florida, priority 2008, dated 2013).

How the values were obtained:
Bcl-XL [1] = molecular target: T1, Bcl-XL (Homo sapiens, UniProt Q07817); assay: Suppression of Bcl-XL-templated incubations of (SZ4) and (TA2) by BH3 peptides (LC/MS-SIM); type: biochemical; conditions: for amount of acylsulfonamide (SZ4TA2) in Bcl-XL incubations containing the peptide: compared to the Bcl-XL incubations containing wild type Bak BH3 and Bim peptides
T1 sequence (Q07817 whole entry): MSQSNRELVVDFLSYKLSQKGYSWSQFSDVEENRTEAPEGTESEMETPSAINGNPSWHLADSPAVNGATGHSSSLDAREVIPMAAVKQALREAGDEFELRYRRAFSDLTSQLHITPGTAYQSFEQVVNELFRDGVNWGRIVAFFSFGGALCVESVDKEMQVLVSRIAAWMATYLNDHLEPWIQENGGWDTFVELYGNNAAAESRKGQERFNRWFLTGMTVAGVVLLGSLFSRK
Description: In a 96-well plate, one thio acid building block (1 μL of a 2 mM solution in methanol) and one sulfonyl azide building block (1 μL of a 2 mM solution in methanol) were added to a solution of Bcl-XL (98 μL of a 2 μM Bcl-XL solution in buffer (58 mM Na2HPO4, 17 mM NaH2PO4, 68 mM NaCl, 1 mM NaN3, pH=7.40)). The 96-well plate was sealed and incubated at 38.5° C. for six hours. The incubation samples were then subjected to liquid chromatography combined with mass spectrometry analysis in the selected ion mode (LC-MS-SIM, Zorbax SB-C18 preceded by a Phenomenex C18 guard column, electrospray ionization and mass spectroscopic detection in the positive selected ion mode, tuned to the expected molecular mass of the product). The TGS hit compound was identified by the mass and retention time. As a control, identical building block combinations were incubated in buffer without Bcl-XL and subjected to LC/MS-SIM analysis. Comparison of the LC-MS-SIM chromatograms of these control incubations with the chromatograms of the Bcl-XL containing incubations allows to determine whether the protein is templating the corresponding amidation reactions or not. For the Bcl-XL containing incubation sample showing acylsulfonamide formation, a second control has been undertaken. Synthetically prepared acylsulfonamide was subjected to LC/MS-SIM analysis and the retention time was compared with the retention time identified in the Bcl-XL containing incubation.
Additional control experiments have been performed to test whether the Bcl-XL-templated reaction occurs at the BH3 binding site on Bcl-XL. Reactive building blocks (SZ4) and (TA2) were incubated with Bcl-XL and pro-apoptotic Bak BH3 peptide. Bak is one of the natural Bcl-XL ligands and theoretically competes with the reactive building blocks for binding on Bcl-XL during the incubations. The influence of Bak BH3 peptide on the Bcl-XL-templated reaction was studied at different ratios of Bak BH3 peptide and Bcl-XL (FIG. 10).
Additional control experiments have been performed with Bim, mutant Bim, and mutant Bak. […]

Bcl-XL [2] = molecular target: T1, Bcl-XL; conditions: compared to wildtype Bak BH3 and Bim peptides; cited from earlier work

Row | Bcl-XL-templated reaction (formation of SZ4TA2) (Bcl-XL [1]; 20 μM Bak BH3 peptide, (SZ4) and (TA2) with Bcl-XL, compared to the Bcl-XL incubation without Bak BH3) | amount of acylsulfonamide (SZ4TA2) in Bcl-XL incubations containing the peptide (Bcl-XL [1]) | Substance | affinity towards Bcl-XL (Bcl-XL [2])
1 | significantly suppressed | – | Bak BH3 peptide: pro-apoptotic Bak BH3 peptide, a natural Bcl-XL ligand; sequence CMGQVGRQLAIIGDDINRRYDS | –
2 | – | increased amount | mutant Bak: mutant Bak BH3 peptide; sequence CMGQVGRQAAIIGADINRRYDS | lower affinity
3 | – | increased amount | mutant Bim: mutant Bim BH3 peptide; sequence CEIWIAQEARRIGAEFNAYYAR | lower affinity
